Measured values reported in publication PMC8408612.

Tests used:
Experiment in all cases: co-IP
[1] = target: endogenous dynein intermediate chain (DIC) of COS7 cells (African green monkey (endogenous in COS7))
Flag-CRMP4 = Flag-CRMP4 (UniProt Q14195)
[2] = target: endogenous mouse dynein intermediate chain (DIC) (mouse (endogenous in sciatic nerve and primary motor neurons)) (UniProt O88485)
Chain of UniProt O88485 (O88485 whole entry): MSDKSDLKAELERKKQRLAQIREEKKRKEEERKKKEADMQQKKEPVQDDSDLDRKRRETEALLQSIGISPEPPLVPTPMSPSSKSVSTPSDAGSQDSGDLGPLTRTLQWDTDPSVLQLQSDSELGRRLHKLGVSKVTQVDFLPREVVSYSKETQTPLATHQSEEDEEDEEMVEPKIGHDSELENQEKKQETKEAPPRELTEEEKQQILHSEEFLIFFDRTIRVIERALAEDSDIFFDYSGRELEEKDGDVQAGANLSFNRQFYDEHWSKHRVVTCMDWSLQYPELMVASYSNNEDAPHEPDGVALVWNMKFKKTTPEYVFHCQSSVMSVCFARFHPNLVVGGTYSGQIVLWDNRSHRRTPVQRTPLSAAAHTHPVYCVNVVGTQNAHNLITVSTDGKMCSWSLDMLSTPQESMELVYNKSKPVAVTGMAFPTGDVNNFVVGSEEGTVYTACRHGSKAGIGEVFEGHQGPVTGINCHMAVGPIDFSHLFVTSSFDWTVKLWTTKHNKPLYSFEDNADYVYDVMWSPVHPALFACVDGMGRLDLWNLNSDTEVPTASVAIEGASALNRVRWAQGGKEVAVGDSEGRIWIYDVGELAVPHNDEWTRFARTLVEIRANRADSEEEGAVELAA

Chain of Flag-CRMP4 (Q14195 whole entry): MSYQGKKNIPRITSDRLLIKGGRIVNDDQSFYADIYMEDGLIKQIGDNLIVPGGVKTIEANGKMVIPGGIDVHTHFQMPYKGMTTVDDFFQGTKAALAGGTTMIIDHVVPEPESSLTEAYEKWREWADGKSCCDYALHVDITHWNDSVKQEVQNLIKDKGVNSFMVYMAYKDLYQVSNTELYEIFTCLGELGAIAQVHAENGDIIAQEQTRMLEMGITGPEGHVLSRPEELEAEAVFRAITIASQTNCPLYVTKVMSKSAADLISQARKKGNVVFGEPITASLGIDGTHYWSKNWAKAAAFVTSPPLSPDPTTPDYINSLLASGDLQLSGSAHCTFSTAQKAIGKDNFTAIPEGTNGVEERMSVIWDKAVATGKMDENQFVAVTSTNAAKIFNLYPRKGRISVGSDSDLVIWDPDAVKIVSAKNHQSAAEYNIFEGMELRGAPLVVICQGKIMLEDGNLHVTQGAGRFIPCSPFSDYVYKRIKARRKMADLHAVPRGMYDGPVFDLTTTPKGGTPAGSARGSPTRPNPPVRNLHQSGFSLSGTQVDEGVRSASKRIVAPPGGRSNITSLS

Substance: CRMP4 (transfected together with AAV9-GFP or AAV9-GFP-50aa, Figure 4H) (from UniProt Q14195 1-570) (natural protein)
- CRMP4 band normalised to DIC band (mean), cells with GFP-50aa [1]: 0.54
- CRMP4 band normalised to DIC band (mean), control cells with GFP [1]: 1

Substance: Flag-CRMP4 (from UniProt Q14195 1-570) (natural protein)
- CRMP4 band normalised to DIC band (mean) [1]: 1

Substance: dynactin (p150), endogenous in COS7 cells (natural protein)
- dynactin band normalised to Flag-CRMP4 band (mean), no peptide (Fig 4E) (Flag-CRMP4): 0.77
- dynactin band normalised to Flag-CRMP4 band (mean), no peptide (Fig 4G) (Flag-CRMP4): 1.92
- dynactin band normalised to Flag-CRMP4 band (mean), with peptide-1 (Flag-CRMP4): 1.44
- dynactin band normalised to Flag-CRMP4 band (mean), with peptide-2 (Flag-CRMP4): 1.34
- dynactin band normalised to Flag-CRMP4 band (mean), with peptide-3 (Flag-CRMP4): 1.8
- dynactin band normalised to Flag-CRMP4 band (mean), with peptide-4 (Flag-CRMP4): 1.13
- dynactin band normalised to Flag-CRMP4 band (mean), with peptides 1-4 (Fig 4E) (Flag-CRMP4): 0.17

Substance: endogenous mouse CRMP4 (from UniProt Q62188 1-570) (natural protein)
- CRMP4 band normalised to DIC band (mean), SOD1G93A sciatic nerve [2]: 1.48
- CRMP4 band normalised to DIC band (mean), WT sciatic nerve [2]: 0.28

Substance: full-length GFP-CRMP4 (from UniProt Q14195 1-570) (natural protein)
- CRMP4 band co-precipitated with DIC (densitometry, mean) [1]: 1.47

Substance: mutated Flag-CRMP4-I141V (from UniProt Q14195 1-570) (natural protein)
- CRMP4 band normalised to DIC band (mean) [1]: 1.62
